Target: APOBEC3G (human), Q9HC16
Experiment: SEC; 10-15 µg of purified enzyme (low enzyme concentration) on a 10 mL Superdex 200 column; 50 mM Tris pH 7.5, 200 mM NaCl; masses and oligomerization states from a Bio-Rad gel filtration standard curve
Settings: remark: other sources report otherwise

stoichiometry N: 2
B1: APOBEC3G, Q9HC16 1-384 (enzyme)
chain: MKPHFRNTVERMYRDTFSYNFYNRPILSRRNTVWLCYEVKTKGPSRPPLDAKIFRGQVYSELKYHPEMRFFHWFSKWRKLHRDQEYEVTWYISWSPCTKCTRDMATFLAEDPKVTLTIFVARLYYFWDPDYQEALRSLCQKRDGPRATMKIMNYDEFQHCWSKFVYSQRELFEPWNNLPKYYILLHIMLGEILRHSMDPPTFTFNFNNEPWVRGRHETYLCYEVERMHNDTWVLLNQRRGFLCNQAPHKHGFLEGRHAELCFLDVIPFWKLDLDQDYRVTCFTSWSPCFSCAQEMAKFISKNKHVSLCIFTARIYDDQGRCQEGLRTLAEAGAKISIMTYSEFKHCWDTFVDHQGCPFQPWDGLDEHSQDLSGRLRAILQNQEN

Reference: paper PMC3961392
